Target: human IL13 (IL012, Millipore) (human) (UniProt P35225)
Assay: SPR, Biacore 3000, antibody captured by anti-human Fc, IL13 as analyte; HEK293-FS expression

Chain of human IL13 (IL012, Millipore) (human) (P35225 35-146 limits assumed): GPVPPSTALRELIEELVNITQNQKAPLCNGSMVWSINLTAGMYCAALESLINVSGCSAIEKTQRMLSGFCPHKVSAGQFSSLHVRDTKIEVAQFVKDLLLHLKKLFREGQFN

Kd: 0.0888 nM
koff: 4.52e-05 s⁻¹
kon: 508000 M⁻¹ s⁻¹
B1: anti-IL13 mAb ctrl (antibody, from a related filing, V domains shown)
VH: EVQLKESGPGLVAPGGSLSITCTVSGFSLTDSSINWVRQPPGKGLEWLGMIWGDGRIDYADALKSRLSISKDSSKSQVFLEMTSLRTDDTATYYCARDGYFPYAMDFWGQGTSVTVSS
VL: DIVLTQSPASLAVSLGQRATISCRASESVDSYGQSYMHWYQQKAGQPPKLLIYLASNLESGVPARFSGSGSRTDFTLTIDPVQAEDAATYYCQQNAEDSRTFGGGTKLEIK

— patent US20230279151A1
